This note sets out measurements from paper PMC3668577, “Structure of diaminohydroxyphosphoribosylaminopyrimidine deaminase/5-amino-6-(5-phosphoribosylamino)uracil reductase from Acinetobacter baumannii” (Acta Crystallographica Section F: Structural Biology and …, 2013).

Experiment [1] has as its target T1, AbRibD (Acinetobacter baumannii, UniProt D0CB74).
T1 construct: gene ribD; full length, 362 residues untagged (386 with tag); N-terminal His6-TEV tag (24 extra residues) kept; E. coli BL21(DE3); homodimer; subunit 42038 Da tagged
T1 sequence (D0CB74 1-361): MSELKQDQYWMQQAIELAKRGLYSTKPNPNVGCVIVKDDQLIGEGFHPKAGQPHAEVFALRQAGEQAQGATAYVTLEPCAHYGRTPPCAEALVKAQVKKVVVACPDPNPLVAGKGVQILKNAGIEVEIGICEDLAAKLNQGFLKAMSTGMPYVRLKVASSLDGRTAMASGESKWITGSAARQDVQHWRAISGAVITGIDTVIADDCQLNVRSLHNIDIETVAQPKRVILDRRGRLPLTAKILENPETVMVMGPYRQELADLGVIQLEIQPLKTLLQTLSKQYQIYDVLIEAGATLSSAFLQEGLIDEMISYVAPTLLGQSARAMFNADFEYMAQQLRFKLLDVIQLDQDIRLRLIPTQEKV
The experiment can be described thus: X-ray crystallography (cocrystallization), […] A. Particulars: 5 mM GMP; crystals at pH 5, 293 K; NADPH-binding site of reductase domain (adenine pocket); second site on surface at occupancy 0.5; authors judge binding not biologically relevant.

Experiment [2] has as its target Acinetobacter baumannii diaminohydroxyphosphoribosylaminopyrimidine deaminase/5-amino-6-(5-phosphoribosylamino)uracil reductase (RibD) (Acinetobacter baumannii (strain ATCC 19606)). Nature of the experiment: crystal structure; form I (apo, C222(1), 2.2 A, two subunits in the asymmetric unit related by a noncrystallographic twofold) and form II (grown with 5 mM GMP, P4(3)2(1)2, 2.0 A, same dimer generated by a crystallographic twofold); crystals grown at 293 K.

For experiment [3] the target is unchanged. The experiment can be described thus: SEC; Superdex 200 26/60, 50 mM Tris-HCl, 250 mM NaCl pH 7.5; both Ni2+ column peaks ran as homogeneous samples of approximate mass 58 kDa (tagged subunit 42 038 Da).

For the compound `Nc1nc2c(ncn2[C@@H]2O[C@H](COP(=O)(O)O)[C@@H](O)[C@H]2O)c(=O)[nH]1` [GMP], in experiment [1], the “X-ray crystallography (cocrystallization), 1.99 A” value is reported as “a GMP molecule was observed in the NADPH-binding site of the reductase domain”.

As a reminder, the stoichiometry N is a count of units in the complex or per binding partner. Consider “Acinetobacter baumannii diaminohydroxyphosphoribosylaminopyrimidine deaminase/5-amino-6-(5-phosphoribosylamino)uracil reductase (RibD) (enzyme)”, for which the stoichiometry N in experiment [2] and in experiment [3] was 2 in each case.
